Source: patent publication US20070160605A1 (RINAT NEUROSCIENCE, published 2007)
Several values for one entry are separate records, joined by “and”; a condition that tells them apart may be missing. Identical values can stand only once.

Target: T1, human NGF (human, UniProt P01138 122-241, limits assumed)
T1 construct: also called hNGF; human nerve growth factor
Test: binding affinity, method not stated

T1 sequence (P01138 122-241 limits assumed): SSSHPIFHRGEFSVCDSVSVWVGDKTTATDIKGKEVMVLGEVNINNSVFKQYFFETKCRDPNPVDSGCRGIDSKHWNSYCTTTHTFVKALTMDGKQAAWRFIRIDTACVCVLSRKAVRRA

B1: humanized anti-NGF antibody E3 (antibody, V domains shown)
VH: QVQLQESGPGLVKPSETLSLTCTVSGFSLIGYDLNWIRQPPGKGLEWIGIIWGDGTTDYNSAVKSRVTISKDTSKNQFSLKLSSVTAADTAVYYCARGGYWYATSYYFDYWGQGTLVTVS
VL: DIQMTQSPSSLSASVGDRVTITCRASQSISNNLNWYQQKPGKAPKLLIYYTSRFHSGVPSRFSGSGSGTDFTFTISSLQPEDIATYYCQQEHTLPYTFGQGTKLEIK
For B1, the Kd was ~0.07 nM and ~0.1 nM.
